Source: EP4484444A1 (Centre National de la Recherche Scientifique, dated 2025)

T1: human BMP-1 (bone morphogenetic protein-1) fused to a C-terminal Flag tag (human, UniProt P13497-2 121-730, limits assumed)
T1 construct: Produced in HEK 293-EBNA cells; also called full-length BMP-1; not shown: C-terminal Flag tag
T1 sequence (looked up): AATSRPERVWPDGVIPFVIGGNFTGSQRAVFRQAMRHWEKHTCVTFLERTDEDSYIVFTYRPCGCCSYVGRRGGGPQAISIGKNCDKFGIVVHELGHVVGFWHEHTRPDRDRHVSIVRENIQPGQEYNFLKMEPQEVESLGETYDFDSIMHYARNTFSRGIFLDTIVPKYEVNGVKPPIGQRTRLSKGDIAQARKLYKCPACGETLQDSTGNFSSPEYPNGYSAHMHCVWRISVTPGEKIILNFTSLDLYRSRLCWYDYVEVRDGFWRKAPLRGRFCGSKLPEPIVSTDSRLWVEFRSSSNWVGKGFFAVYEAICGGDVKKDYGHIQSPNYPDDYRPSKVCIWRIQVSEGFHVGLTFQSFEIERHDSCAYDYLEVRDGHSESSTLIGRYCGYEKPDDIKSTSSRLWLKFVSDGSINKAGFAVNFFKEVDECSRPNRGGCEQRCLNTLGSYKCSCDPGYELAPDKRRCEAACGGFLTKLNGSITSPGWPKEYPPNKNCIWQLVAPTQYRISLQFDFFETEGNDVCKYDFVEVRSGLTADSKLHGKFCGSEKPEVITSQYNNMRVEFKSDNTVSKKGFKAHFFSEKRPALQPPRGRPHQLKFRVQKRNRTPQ

B1: recombinant human PCPE-2 (procollagen C-proteinase enhancer 2) fused to a 6 Histidine-tag at the N-terminus (other)
chain: HHHHHHQSPERPVFTCGGILTGESGFIGSEGFPGVYPPNSKCTWKITVPEGKVVVLNFRFIDLESDNLCRYDFVDVYNGHANGQRIGRFCGTFRPGALVSSGNKMMVQMISDANTAGNGFMAMFSAAEPNERGDQYCGGLLDRPSGSFKTPNWPDRDYPAGVTCVWHIVAPKNQLIELKFEKFDVERDNYCRYDYVAVFNGGEVNDARRIGKYCGDSPPAPIVSERNELLIQFLSDLSLTADGFIGHYIFRPKKLPTTTEQPVTTTFPVTTGLKPTVALCQQKCRRTGTLEGNYCSSDFVLAGTVITTITRDGSLHATVSIINIYKEGNLAIQQAGKNMSARLTVVCKQCPLLRRGLNYIIMGQVGEDGRGKIMPNSFIMMFKTKNQKLLDALKNKQC
notes: Produced in HEK 293-T cells from pHLsec; Used as analyte and as immobilized ligand in SPR and in the activity assays; also called full-length PCPE-2
B2: C1(R44A,F78A,R79D)-C2(L101A) (other)
chain: GPASQSPERPVFTCGGILTGESGFIGSEGFPGVYPPNSKCTWKITVPEGKVVVLNFAFIDLESDNLCRYDFVDVYNGHANGQRIGRFCGTADPGALVSSGNKMMVQMISDANTAGNGFMAMFSAAEPNERGDQYCGGLLDRPSGSFKTPNWPDRDYPAGVTCVWHIVAPKNQLIELKFEKFDVERDNYCRYDYVAVFNGGEVNDARRIGKYCGDSPPAPIVSERNELLIQFLSDASLTADGFIGHYIFRPKKLEHHHHHH
notes: also called C1-C2 with the combination of the 4 mutations
B3: NTR domain of PCPE-2 (other, human, UniProt Q9UKZ9 297-415, looked up)
chain: CQQKCRRTGTLEGNYCSSDFVLAGTVITTITRDGSLHATVSIINIYKEGNLAIQQAGKNMSARLTVVCKQCPLLRRGLNYIIMGQVGEDGRGKIMPNSFIMMFKTKNQKLLDALKNKQC
notes: domain: NTR
B4: catalytic domain of BMP-1 (enzyme, UniProt P13497 121-320, looked up)
chain: AATSRPERVWPDGVIPFVIGGNFTGSQRAVFRQAMRHWEKHTCVTFLERTDEDSYIVFTYRPCGCCSYVGRRGGGPQAISIGKNCDKFGIVVHELGHVVGFWHEHTRPDRDRHVSIVRENIQPGQEYNFLKMEPQEVESLGETYDFDSIMHYARNTFSRGIFLDTIVPKYEVNGVKPPIGQRTRLSKGDIAQARKLYKCP
notes: domain: catalytic domain; also called BMP-1cat
B5: CUB1CUB2* domains of PCPE-2 (other)
chain: GPASQSPERPVFTCGGILTGESGFIGSEGFPGVYPPNSKCTWKITVPEGKVVVLNFRFIDLESDNLCRYDFVDVYNGHANGQRIGRFCGTFRPGALVSSGNKMMVQMISDANTAGNGFMAMFSAAEPNERGDQYCGGLLDRPSGSFKTPNWPDRDYPAGVTCVWHIVAPKNQLIELKFEKFDVERDNYCRYDYVAVFNGGEVNDARRIGKYCGDSPPAPIVSERNELLIQFLSDLSLTADGFIGHYIFRPKLEVLFQ
notes: Two O-glycosylated forms are seen on the gel; also called C1-C2*; the CUB domains of PCPE-2
B6: C-propeptide III (C-propeptide of procollagen III) (other, UniProt P02461 1222-1466, looked up)
chain: DEPMDFKINTDEIMTSLKSVNGQIESLISPDGSRKNPARNCRDLKFCHPELKSGEYWVDPNQGCKLDAIKVFCNMETGETCISANPLNVPRKHWWTDSSAEKKHVWFGESMDGGFQFSYGNPELPEDVLDVHLAFLRLLSSRASQNITYHCKNSIAYMDQASGNVKKALKLMGSNEGEFKAEGNSKFTYTVLEDGCTKHTGEWSKTVFEYRTRKAVRLPIVDIAPYDIGGPDQEFGVDVGPVCFL
notes: domain: C-propeptide; Described as an uncleavable substrate mimic; Immobilized in SPR (351 RU); also called C-propeptide of collagen III
B7: C2NTR (CUB2 and NTR domains of PCPE-2) (other)
chain: ETGHHHHHHCGGLLDRPSGSFKTPNWPDRDYPAGVTCVWHIVAPKNQLIELKFEKFDVERDNYCRYDYVAVFNGGEVNDARRIGKYCGDSPPAPIVSERNELLIQFLSDLSLTADGFIGHYIFRPKKLPTTTEQPVTTTFPVTTGLKPTVALCQQKCRRTGTLEGNYCSSDFVLAGTVITTITRDGSLHATVSIINIYKEGNLAIQQAGKNMSARLTVVCKQCPLLRRGLNYIIMGQVGEDGRGKIMPNSFIMMFKTKNQKLLDALKNKQC
notes: also called CUB2NTR

How the values were obtained:
[1] = molecular target: T1, human BMP-1 (bone morphogenetic …); experiment: SPR, PCPE-2 1.56-100 nM over immobilized BMP-1 (974 RU), steady-state fit
[2] = molecular target: T1, human BMP-1 (bone morphogenetic …); experiment: inhibition of BMP-1 (7 nM) cleavage of the fluorogenic peptide Mca-YVADAPK(Dnp)-OH, Morrison equation (apparent Ki)
[3] = molecular target: CPIII-Long (model substrate derived from procollagen III); experiment: cell-based or functional assay
[4] = molecular target: T2, mini-procollagen III (fused to a N-terminal c-myc tag) (UniProt P02461 1098-1466); experiment: SPR, analyte over immobilized mini-procollagen III (437 RU)
T2 construct: also called Mini-III; not shown: N-terminal c-myc tag

[5] = molecular target: T1, human BMP-1 (bone morphogenetic …); experiment: SPR (Figure 65)
[6] = molecular target: T1, human BMP-1 (bone morphogenetic …); experiment: SPR, analyte over immobilized BMP-1 (974 RU)
[7] = molecular target: T2, mini-procollagen III (fused to a …); experiment: SPR, analyte over immobilized mini-procollagen III (435 RU)
[8] = molecular target: B1; experiment: SPR, analyte over immobilized PCPE-2 (646 RU)
[9] = molecular target: T2, mini-procollagen III (fused to a …); experiment: SPR, CUB1CUB2* 0.78-50 nM over immobilized mini-procollagen III (435 RU)
[10] = molecular target: T1, human BMP-1 (bone morphogenetic …); experiment: SPR, C1-C2* 1.56-100 nM over immobilized BMP-1 (974 RU), steady-state fit
[11] = molecular target: B1; experiment: SPR, PCPE-2 over immobilized C-propeptide III (351 RU)
[12] = molecular target: T1, human BMP-1 (bone morphogenetic …); experiment: SPR over immobilized BMP-1

B1
Kd [1]: 8.4 nM
Ki [2]: 2.8 nM
maximum enhancement factor of CPIII-Long processing by BMP-1 (ratios 0:1 to 6:1) [3]: 1.3 fold

B2
binding result [4]: no binding (tested: 50 nM)
binding result [5]: binds

B3
binding result [6]: no binding (tested: 50 nM)
binding result [7]: no binding (tested: 200 nM)

B4
binding result [8]: no binding (tested: 50 nM)

B5
Kd [9]: ~30 nM
Kd [10]: 28 nM

B6
Kd [11]: 45 nM

B7
binding result [12]: binds
